Results reported in the DeepSol protein solubility set.

Assay: soluble on expression in E. coli; label from the status in PepcDB or PDB records

Sequence	soluble on expression in E. coli
MGKQCFVTGRKASTGNNRSHALNSSKRRWNANLQKVRILVDGKPKKVWVSARALKSGKVTRVLEHHHHHH	not soluble
MDEYSPKRHDIAQLKFLCETLYHDCLANLEESNHGWVNDPTSAVNLQLNELIEHIATFALNYKIKYNEDNKLIAQIDEYLDDTFMLFSSYGINTQDLQKWRKSGNRLFRCFVNATRANPVSLSCLEHHHHHH	not soluble
WKRGKISTQLDDDEFRAGMRKAQVIDVREKKEFDAGHILGARNIPYSQMKNRTQELRSDLPVYLYDQGRTFSGRAAMLLSKKGFTQLYILKNGYQRWTGKTKKTKY	soluble
MAAAVRQDLAQLMNSSGSHKDLAGKYRQILEKAIQLSGTEQLEALKAFVEAMVNENVSLVISRQLLTDFCTHLPNLPDSTAKEVYHFTLEKIQPRVISFEEQVASIRQHLASIYEKEEDWRNAAQVLVGIPLETGQKQYNVDYKLETYLKIARLYLEDDDPVQAEAYINRASLLQNESTNEQLQIHYKVCYARVLDYRRKFIEAAQRYNELSYKTIVHESERLEALKACTGTAPILVSAGDSSALGGRAIFFKDKRCQQLAAYGILEKMYVDRIIRGNQLQEFAAMLMPHQKATTADGSSILDRAVIEHNLLSASKLYNNITFEELGALLEIPAAKAEKIASQMITEGRMNGFIDQIDGIVHFETREALPTWDKQIQSLCFQVNNLLEKISQTAPEWTAQAMEAQMAQ	soluble
MSLSDKKVLCVEDEEVIRSNLMETLELFFDKVSGAKDGFEALEQAMCDTYDVFIFDISIPHLDGLEVLKRVRQFNKKTPIVILSAHKEQEYLWRAVELKITRYLTKPYDKNSLIKALEEVALELMDYHPLFQISPLHSYDFCRKAMTCKGEMVYLSKKREPTEGHHHHHH	not soluble
MAVKVKKILISQPQPVAGRSPYYDIAQKHGCEVVFRPFIQVESVSAREFRNQKVNILDHSAIIFTARTAIDHFFSLCEELRVTVPETMKYFCVSESVAVYLQKHIVYRKRKIFFGATGKLEDLLTVISKHNKETYFVPLAEEHKHDLLDMLTAKKVSFSPAIMYRTVSNDFGPDEALDHDMILFFSPSGITALLKNFPKFEQGKTKIGAFGPTTAKAVEEAGLRLDLSAPTEQYPSMAMALEDYLNGK	not soluble
GHMNVKLKVFHAGSLTEPMKAFKRAFEEKHPNVEVQTEAAGSAATIRKVTELGRKADVIATADYTLIQKMMYPEFANWTIMFAKNQIVLAYRNDSRYADEINSQNWYEILKRPDVRFGFSNPNDDPCGYRSLMAIQLAELYYNDPTIFDELVAKNSNLRFSEDNGSYVLRMPSSERIEINKSKIMIRSMEMELIHLVESGELDYFFIYKSVAKQHGFNFVELPVEIDLSSPDYAELYSKVKVVLANGKEVTGKPIVYGITIPKNAENRELAVEFVKLVISEEGQEILRELGQEPLVPPRADTAVPSLKAMVEVS	soluble
MDDSLGVSEVVMIPFMKREVLQQICAILDTDNTWETIAPYMPGIELRDVEGCKRYSSYNQSPSELLLRIWSSKGYSTTHLYQLFAKTKLIRLMRMMRSQVHEKYHYLENKVTNSTSRVSKQMVQPPGSQSASRLKKTEIKESSPSPAAAAASQLSRSNTDDTLRVAIEGTLPVTYCELLEATNGFAVSNVIGKGGYGTVYKGELKGTGGIVAVKRLHSGNDTSQNGSRERLRQSLTELRTLARFRHDNILPIYAYSLEGSEPCLVYQFMSNGSLEDRLLCRKGSVPLTWIQRKEISIGAGRGLGFLHSFGKTPIIHGDIKTANILLDKHMEPKIGDFGLCRDGHVEAEAMEKHPLIASHIKGTLAYLAPEFITSKILTTKLDVYSFGIVLLEIASGQRAYSDSRETRGLVEYCQVNKELAAHRKIPVREIFIDRRAPPLVGDEEKSFLDALIEVGLAGANNDRKVRPTMSQIVEYLCKNSIPPVV	not soluble
GMNSNFSYPALGVDGISSQISPIRDVWSTNLQQEMNLIMSLIERYPVVSMDTEFPGVVARPLGVFKSSDDYHYQTLRANVDSLKIIQIGLALSDEEGNAPVEACTWQFNFTFNLQDDMYAPESIELLTKSGIDFKKHQEVGIEPADFAELLIGSGLVLQEEVTWITFHSGYDFAYLLKAMTQIPLPAEYEEFYKILCIYFPKNYDIKYIMKSVLNNSKGLQDIADDLQIHRIGPQHQAGSDALLTARIFFEIRSRYFDGSIDSRMLNQLYGLGSTGSVLWHNNSSTPQIQFRDLPGAHPSPTPSNAGIPTTLTNTSSAPNFANSTFRFPPRVV	soluble
SNAMTTPIRVVVWNEFRHEKKDEQVRAIYPEGMHTVIASYLAEAGFDAATAVLDEPEHGLTDEVLDRCDVLVWWGHIAHDEVKDEVVERVHRRVLEGMGLIVLHSGHFSKIFKKLMGTTCNLKWREADEKERLWVVAPGHPIVEGIGPYIELEQEEMYGEFFDIPEPDETIFISWFEGGEVFRSGCTFTRGKGKIFYFRPGHETYPTYHHPDVLKVIANAVRWAAPVNRGEIVFGNVKPLEPIKAKQGGVTQ	soluble
MPTVRLADGDLNYSLEGPAGAPVLLLSNSLGTDLGMWDTQIPALTAHFRVLRYDTRGHGASLVTPGPYAIGQLGADVLALLDALELPRVHFCGLSMGGLIGQWLGIHAGERLGRLVLCNTAAKIASDEVWNTRIDTVLKGGEQAMRDLRDASVARWFTAGFAEREPAQVERIVAMLAATSPQGYAANCAAVRDADFREQLGLVQAPTLIVAGSHDAVTTPDNARFMQARIADAQLVEFAAAHLSNVEAGDAFSRRLVDFLL	not soluble
MFNEKDQLAVDTLRALSIDTIEKANSGHPGLPMGAAPMAYTLWTRHLNFNPQSKDYFNRDRFVLSAGHGSALLYSLLHVSGSLELEELKQFRQWGSKTPGHPEYRHTDGVEVTTGPLGQGFAMSVGLALAEDHLAGKFNKEGYNVVDHYTYVLASDGDLMEGISHEAASFAGHNKLSKLVVLYDSNDISLDGELNKAFSENTKARFEAYGWNYLLVKDGNDLEEIDKAITTAKSQEGPTIIEVKTTIGFGSPNKAGTNGVHGAPLGEVERKLTFENYGLDPEKRFNVSEEVYEIFQNTMLKRANEDESQWNSLLEKYAETYPELAEEFKLAISGKLPKNYKDELPRFELGHNGASRADSGTVIQAISKTVPSFFGGSADLAGSNKSNVNDATDYSSETPEGKNVWFGVREFAMGAAVNGMAAHGGLHPYGATFFVFSDYLKPALRLSSIMGLNATFIFTHDSIAVGEDGPTHEPIEQLAGLRAIPNMNVIRPADGNETRVAWEVALESESTPTSLVLTRQNLPVLDVPEDVVEEGVRKGAYTVYGSEETPEFLLLASGSEVSLAVEAAKDLEKQGKSVRVVSMPNWNAFEQQSEEYKESVIPSSVTKRVAIEMASPLGWHKYVGTAGKVIAIDGFGASAPGDLVVEKYGFTKENILNQVMSL	not soluble
MGSDKIHHHHHHMHHSHHLEIYEKLREKLDKAPVGLPKTVSGVEKEILSVLFDEEEAKIAVHMPFIRFTAEQLAERTGKSLEYVEKILNEMAKKGTVWKGEKDGKTYYRLFPVIVGFAEMPFLAGPGRDARQEKLAPLWAKYRKEGFLDELGDREHAILRALPEKSTISKQSVILPYEDAEKLVRDRDYHAVGYCPCRIMARLIGEGCRHSLEVCLHFGSLGKYMVEHGYARRITADEAVEILRKSNREGLVHVTERSKGPISTICNCCSDCCAFFRAIHEAGHPKTIAHSSYVASVDSSKCIACGICMLRCPMKAVKAKINREPANVEAEKCLGCGVCVPTCPVEAIELVEREELQEWPDHLTYYQELLADRGKDPAGLF	not soluble
MAHHHHHHMWGFEAYAEGLSATLNIHGAPLTGVAPQAGESAPLAPPRCLWKKNRNNYLFDAQGKLLSAAEAHSPTIWRTHHAFSGRCALVNPTAPATGGAAAQSFGAPGWAEQAWTAYQSWSVGFRLSSTTTDEPHILLSVAPAYFPNLVSATGEIRKADAATLASLPCAPSAEEEVIYNKRMLETPLIWEEPYALSVECTTHGVFLWSDHWGIFGRKIADRCLEVRQGEVRQSGIATLPSPGPSPSSAAADEELALVAYDAALRLRWSAAGPGSRSSTDGGSARAVAPTLSVELKTGGDAAAGGAAPTCEEKVGEELWQHLVDLPLSLDEVACKAAFRPYVTLMEGGDAVELL	not soluble
AIAAAVKDSCGKGEMATGNGRRLHLGIPEAVFVEDVDSFMKQPGNETADTVLKKLDEQYQKYKFMELNLAQKKRRLKGQIPEIKQTLEILKYMQKKKESTNSMETRFLLADNLYCKASVPPTDKVCLWLGANVMLEYDIDEAQALLEKNLSTATKNLDSLEEDLDFLRDQFTTTEVNMARVYNWDVKRRNKDDSTKNKA	soluble
MAHHHHHHMIKRYLKIYPSIYFTKHVYTAPEIDGSKDLLKKDYVFNQYVNKKEIFLNNKLKKGNCENEIKRIYYFKLWNAMVEHNFTLFENIIQQYLNEGYKYDEVIYSIMTHAYILNHKKKNENAYLVIEEMKRAFMHPIIIKINERMINCFLELELIFCEPSKSLWINVCRFIWESSIKLNRERRRKLKEKLNLLEPNQVLKLTKEDVKKLVKKEYEETLLSMMDTLSLDGEDPYDHILIDRKENYMKIENQKDGNFFPSNGNELTCLNNNHIYNDHINYLKGNIENDTSENVNSFMFSILNEGKNKTTEQEINYQDDYNLNNNDYMTKITNINSDNNIMMNMENEHMYETDEKDEHYESFDDAEDFDIQLLKKYYNLK	not soluble
MGSDKIHHHHHHMIMINKTKRLMVSRQVKIPRKTYFWGPTPNPGMHPKDQSVTLLSIIRDYLKLSDKEREAARILANGLVKVDGKTVREKKFAVGFMDVIEINGESYRVVYNDQGALVLMKETKERASMKLLKVRSKVIAPGNRIQLGTHDGRTFITDDKSKKVGDVWAVSVPDMKISEIIKMQPGNKAYITAGSHVNQTGTISKIEAKEGSSANLVHFQEGFSTIKDHVFMIGSSKFSFVLSPEEVIP	not soluble
MKAIILAGGHSVRFGKPKAFAEVNGETFYSRVIKTLESTNMFNEIIISTNAQLATQFKYPNVVIDDENHNDKGPLAGIYTIMKQHPEEELFFVVSVDTPMITGKAVSTLYQFLVSHLIENHLDVAAFKEDGRFIPTIAFYSPNALGAITKALHSDNYSFKNIYHELSTDYLDVRDVDAPSYWYKNINYQHDLDALIQKLLEHHHHHH	soluble
MGSDKIHHHHHHMKDNFFGREYDIAPAGGETGQAFVATHEDEKFFLKRNSSPFLAALSVENIVPKLVWTRRVENGDVITAQKWVNCHILTREEMVGPRVAKLLAKIHHSENLRHMLEKIENCYFSAHQLLARLKAEMKAKNEANNVMQTAIEYLERNITAVEKADYVVCHGDVNHNNWIISEENELFLVDWDGAMLADAANDLGMILYQYIPREGWDEWLSNYGTTLTSELHRKLKWYTLCQTVMQLTTNQSEEAYERAKQIFQNAIEDDEV	not soluble
